Values joined by “and” are separate entries in the source; they are usually repeats but may differ in a detail not shown here. Equal values may be shown once. “Also recorded” adds a separate entry of the source.
Legend:
Vγ9Vδ2 cells [1] = test: Luminex (Vγ9Vδ2): cytokine/chemokine secretion by pre-expanded Vγ9Vδ2 cells; assay type: cell-based, human; conditions: for IL-4 / IL-8 / GMCSF / ICAM-1 / IFNγ / IL-13 / IL-17A / MIP-1a / MIP-1b / TNFα / sE-selectin / sP-Selectin: 16 hrs, antibodies 10 μg/ml, Zoledronic acid 4 μM, HMBPP 0.5 ng/ml, duplicates, 0 set to 0.1;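 as to all read-outs here: Vγ9Vδ2 cells purified from PBMC, activated 48 h with CD3 and CD28 plus IL-2, expanded 14 days in IL-2, then thawed and rested overnight in IL-2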
Procedure: Briefly, Vγ9Vδ2 cells were isolated from 1 healthy donor (Red Cross Australia) and 1 cancer patient derived PBMC using TCRγ/δ+ T Cell Isolation Kit (Miltenyi). Cells were stimulated for 48 hours in TCRPMI supplemented with 100u/ml IL-2, CD3 (10 μg/ml) and CD28 (1 μg/ml). Cells were washed and grown for 14 days in TCRPMI supplemented with 100u/ml IL-2 at 37 degrees C. and 5% CO2, and then frozen down. […] Vγ9Vδ2 were defrosted and rested overnight in TCRPMI supplemented with 50u/ml IL-2 at 37 degrees C. and 5% CO2. […] All samples were run with appropriate controls and standards.

γδ T cells = test: Identification of BTN2A1 agonistic antibodies: CD25 and interferon γ of expanded γδ T cells; assay type: cell-based, human; conditions: 10 μg/ml antibody overnight, vs isotype control BM4
Procedure: In some experiments γδ T cells were enriched by MACS using PE-Cy7-conjugated anti-γδTCR followed by anti-phycoerythrin-mediated magnetic bead purification (Miltenyi Biotec). After enrichment CD3+Vδ2+ γδ T cells were further purified by sorting using an Aria III (BD). Enriched γδ T cells were stimulated in vitro for 48 h with plate-bound anti-CD3ε (OKT3, 10 ug/ml, Bio-X-Cell), soluble anti-CD28 (CD28.2, 1 ug/ml, BD Pharmingen), phytohemagglutinin (0.5 μg/ml, Sigma), IL-15 (50 ng/ml), and recombinant human IL-2 (100 U/ml, PeproTech), followed by maintenance with IL-2 and IL-15 for 14-21 d. Cells were cultured in complete medium consisting of a 50:50 (v/v) mixture of RPMI-1640 and AIM-V (Invitrogen) supplemented with 10% (v/v) FCS (JRH Biosciences), penicillin (100 U/ml), streptomycin (100 μg/ml), Glutamax (2 mM), sodium pyruvate (1 mM), nonessential amino acids (0.1 mM), and HEPES buffer (15 mM), pH 7.2-7.5 (all from Invitrogen Life Technologies), plus 50 μM 2-mercaptoethanol (Sigma-Aldrich).
The inventors screened the panel of antibodies specific for BTN2A1, as described above, to identify those able to agonise BTN2A1. The inventors assessed the ability of anti-BTN2A1 antibodies to activate γδ T cells. The inventors assessed upregulation of CD25 on the surface of previously expanded γδ T cells following culturing the cells with 10 μg/ml anti-BTN2A1 antibodies or isotype control antibody (BM4) overnight.
The inventors additionally measured levels of interferon γ secreted by γδ T cells following culture in the presence of 10 μg/ml anti-BTN2A1 antibodies or isotype control antibody (BM4) overnight. Interferon γ secretion is another indicator of TCR-dependent activation.

[2] = tested on: LM-MEL-62 and LM-MEL-75 melanoma cells; test: Tumor killing/inhibition assay: γδ T cells with melanoma cells 2:1, MTS and CD25; assay type: cell-based, human; conditions: γδ T cells : melanoma cells 2:1, three days, antibody 10 ug/ml
Procedure: In the following experiments, γδ T cells were enriched by MACS using PE-Cy7-conjugated anti-γδTCR followed by anti-phycoerythrin-mediated magnetic bead purification (Miltenyi Biotec). After enrichment CD3^+ Vδ2^+γδ T cells were further purified by sorting using an Aria III (BD). […] LM-MEL-62 and LM-MEL-75 melanoma cells were plated out 1×10^4 per well in a 96 well flat-bottom plate In RPMI1640 media supplemented with 10% FBS and left to adhere overnight. […] All conditions were repeated in triplicate. Cells were incubated at 37 degrees and on day 3 Vd2+ cells were acquired by flow cytometry. Live cells were gated and activation determined by analysis of CD25 expression. Melanoma cell viability was determined by MTS assay. MTS reagent was added to RPMI media at a 1:5 ratio and 100 ul added per well. Cells were incubated at 37 degrees for 30 minutes and the plate was read on a Spectrostar nano plate reader at 490 nm. […] Cultures were performed with γδ T cells and melanoma cells (LM-MEL-75 or LM-MEL-62) in a 2:1 ratio.

Vγ9Vδ2 cells [3] = test: Flow cytometry: CD25 on Vγ9Vδ2 cells without phosphoantigen or APCs; assay type: cell-based, human; conditions: no addition of APCs or phosphoantigen; listed as 259
Description: Vγ9Vδ2 cells were stained for CD3, Vδ2, CD25 and live dead viability dye as previously described and analysed on a Canto flow cytometer (BD). Cells were gated on lymphocytes, single cells, live cells, CD3+ Vδ2+, and activation determined based on CD25 expression.

BTN2A2 = target: T1, BTN2A2 (Homo sapiens, UniProt Q8WVV5); test: Cross-reactivity of anti-BTN2A1 mAb to BTN2A2 (ELISA, transfected cells); assay type: binding
T1 sequence (Q8WVV5 33-265 limits assumed): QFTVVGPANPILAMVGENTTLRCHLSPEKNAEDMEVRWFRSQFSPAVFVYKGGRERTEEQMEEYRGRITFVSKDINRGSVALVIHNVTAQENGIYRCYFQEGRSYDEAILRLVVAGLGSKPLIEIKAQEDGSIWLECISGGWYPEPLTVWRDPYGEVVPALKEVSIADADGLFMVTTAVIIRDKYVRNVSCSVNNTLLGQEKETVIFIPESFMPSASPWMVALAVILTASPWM
Procedure: Purified recombinant proteins (0.2-20 μg/ml) were immobilized in microplate wells in PBS buffer overnight at 4° C. Non-specific binding was then blocked by incubation in PBS containing 0.05% tween 20 plus 5% skim milk powder or 0.5% (w/v) bovine serum albumin (BSA). The wells were then incubated for 60 minutes at room temperature in the presence of antibodies at 2-5 μg/mL in PBS/0.05% tween-20/2% skim milk powder or 0.5% BSA, followed by washing in PBS/0.05% tween-20. Plates were then incubated with HRP-labelled sheep anti-mouse IgG secondary antibody (Chemicon), or goat anti-mouse IgG secondary antibody (Millipore) followed by detection using 3,3′,5,5′-tetramethylbenzidine substrate (Sigma) and absorbance was measured at 450 nm using a plate reader.

[4] = γδT cells from a healthy donor, listed as 259
[5] = γδT cells from patient 1 (melanoma patient), listed as 259

B1: antibody 259: agonistic anti-BTN2A1 antibody; VL SEQ ID NO: 156, VH SEQ ID NO: 160 (antibody, V domains shown)
VH: EVQLLESGGGLVQPGGSLRLSCAASGFTFSSYAMQWVRQAPGKGLEWVSRIGPSGGGTMYADSVKGRFTISRDNSKNTLYLQMNSLRAEDMAVYYCARDLGGLSVLFDYWGQGTLVTVSS
VL: QSELTQPPSASETPGQRVTISCSGSSSNIGSNTVSWFQQLPGSAPRLLIYNDHRRPSGVPDRFSGSKSGTSASLVISGLQSQDEADYYCSAWDDSLNGVVFGGGTKLTVL
modifications: amino acid sequence of the VH of antibody 259; amino acid sequence of the VL of antibody 259
Question: What does the source list for B1?
Answer: cytokine/chemokine secretion, in words (Vγ9Vδ2 cells [1]; across both donors): substantial increase in multiple analytes; cytokine/chemokine secretion, in words (Vγ9Vδ2 cells [1]; healthy donor derived Vγ9Vδ2 cells, vs isotype (BM4)): no IL-4 was detected; IL-4 (Vγ9Vδ2 cells [1]; γδT cells from a healthy donor): 0.1 pg/mL; IL-8 (Vγ9Vδ2 cells [1]; γδT cells from a healthy donor): 0.1 pg/mL; GMCSF (Vγ9Vδ2 cells [1]; [4]): 578.23 pg/mL and 608.66 pg/mL; ICAM-1 (Vγ9Vδ2 cells [1]; [4]): 227.66 pg/mL and 226.25 pg/mL; IFNγ (Vγ9Vδ2 cells [1]; [4]): 359.53 pg/mL and 412.2 pg/mL; IL-13 (Vγ9Vδ2 cells [1]; [4]): 23.33 pg/mL and 31.31 pg/mL; IL-17A (Vγ9Vδ2 cells [1]; [4]): 3.7 pg/mL and 4.17 pg/mL; MIP-1a (Vγ9Vδ2 cells [1]; [4]): 301.77 pg/mL and 286.07 pg/mL; MIP-1b (Vγ9Vδ2 cells [1]; [4]): 9757.6 pg/mL and 9064.66 pg/mL; TNFα (Vγ9Vδ2 cells [1]; [4]): 451.81 pg/mL and 481.49 pg/mL; sE-selectin (Vγ9Vδ2 cells [1]; [4]): 259.93 pg/mL and 300.24 pg/mL; sP-Selectin (Vγ9Vδ2 cells [1]; [4]): 2291.35 pg/mL and 2223.07 pg/mL; GMCSF (Vγ9Vδ2 cells [1]; [5]): 1135.87 pg/mL and 1151.41 pg/mL; ICAM-1 (Vγ9Vδ2 cells [1]; [5]): 798.07 pg/mL and 755.13 pg/mL; IFNγ (Vγ9Vδ2 cells [1]; [5]): 598.1 pg/mL and 740.33 pg/mL; IL-4 (Vγ9Vδ2 cells [1]; [5]): 490.79 pg/mL and 389.47 pg/mL; IL-8 (Vγ9Vδ2 cells [1]; [5]): 0.93 pg/mL and 1.06 pg/mL; IL-13 (Vγ9Vδ2 cells [1]; [5]): 399.99 pg/mL and 461.27 pg/mL; IL-17A (Vγ9Vδ2 cells [1]; [5]): 5.86 pg/mL and 6.55 pg/mL; MIP-1a (Vγ9Vδ2 cells [1]; [5]): 317.76 pg/mL and 361.32 pg/mL; MIP-1b (Vγ9Vδ2 cells [1]; [5]): 6921.27 pg/mL and 8238.42 pg/mL; TNFα (Vγ9Vδ2 cells [1]; [5]): 1130.35 pg/mL and 1137.89 pg/mL; sE-selectin (Vγ9Vδ2 cells [1]; [5]): 311.65 pg/mL and 368.09 pg/mL; sP-Selectin (Vγ9Vδ2 cells [1]; [5]): 2170.46 pg/mL and 2424.08 pg/mL; level of secreted interferon γ (γδ T cells): increase the level of secreted interferon γ; percentage of γδ T cells expressing CD25 (γδ T cells): increase the percentage of γδ T cells expressing CD25; CD25 level of expression on γδ T cells in co-culture [2]: upregulated; activation of Vγ9Vδ2 cells by CD25 upregulation (Vγ9Vδ2 cells [3]): higher activation potential; also recorded: can mimic phosphoantigen mediated activation to various degrees; cross-reactivity to BTN2A2 (BTN2A2): not cross-reactive
